Data from FireProtDB (doi:10.1006/jmbi.1999.2569).

Conditions: Bacillus amyloliquefaciens; pH 6.3; Thermal; DSC; MES 50 mM; whole UniProt chain shown

B1: Ribonuclease wild type, P00648 (protein)
chain: MMKMEGIALKKRLSWISVCLLVLVSAAGMLFSTAAKTETSSHKAHTEAQVINTFDGVADYLQTYHKLPDNYITKSEAQALGWVASKGNLADVAPGKSIGGDIFSNREGKLPGKSGRTWREADINYTSGFRNSDRILYSSDWLIYKTTDHYQTFTKIR
  Tm: 54.1 °C
